By Km is commonly meant the substrate concentration at which the rate is half of its maximum.

For one protein, Km results are on record in PMC6297244, “Synthesis and Kinetic evaluation of an azido analogue of methylerythritol phosphate: a Novel Inhibitor of E. coli YgbP/IspD” (Scientific Reports, 2018).

Substrate in data set [1]: C[C@](O)(CO)[C@H](O)COP(=O)(O)O
Briefly: Michaelis-Menten and bi-substrate steady-state kinetics (apparent Km), malachite green assay. It counts as biochemical, Escherichia coli. Particulars: Mg2+ ([…] MgCl2 in assay); CTP as co-substrate sequential mechanism; ternary complex with CTP.

Substrate in data set [2]: Nc1ccn([C@@H]2O[C@H](COP(=O)(O)OP(=O)(O)OP(=O)(O)O)[C@@H](O)[C@H]2O)c(=O)n1
The description is as above. The class given is biochemical, Escherichia coli. Particulars: Mg2+ ([…] MgCl2 in assay); MEP as co-substrate CTP-binding pocket; sequential mechanism.

B1: YgbP/IspD (Escherichia coli K-12) (protein)
chain: ATTHLDVCAVVPAAGFGRRMQTECPKQYLSIGNQTILEHSVHALLAHPRVKRVVIAISPGDSRFAQLPLANHPQITVVDGGDERADSVLAGLKAAGDAQWVLVHDAARPCLHQDDLARLLALSETSRTGGILAAPVRDTMKRAEPGKNAIAHTVDRNGLWHALTPQFFPRELLHDCLTRALNEGATITDEASALEYCGFHPQLVEGRADNIKVTRPEDLALAEFYLTRTIHQENT
For the protein B1, the Km is recorded as 40 ± 7 µM in data set [1] and 84 ± 9 µM in data set [2].
